Results from PMC12881670, “Investigation into ligand selectivity and bias at the formyl peptide receptor family” (The Journal of Pharmacology and Experimental Therapeutics, 2025).
Where no end group is shown, it is not given here. The star is where a group is joined. For = O=C*

Columns and labels:
Assay in all cases: cell-based or functional assay
[1] = target: T1, FLAG-Hs_FPR1 C-terminally fused to Renilla Luciferase 8 (human, UniProt P21462 1-350)
T1 sequence (looked up): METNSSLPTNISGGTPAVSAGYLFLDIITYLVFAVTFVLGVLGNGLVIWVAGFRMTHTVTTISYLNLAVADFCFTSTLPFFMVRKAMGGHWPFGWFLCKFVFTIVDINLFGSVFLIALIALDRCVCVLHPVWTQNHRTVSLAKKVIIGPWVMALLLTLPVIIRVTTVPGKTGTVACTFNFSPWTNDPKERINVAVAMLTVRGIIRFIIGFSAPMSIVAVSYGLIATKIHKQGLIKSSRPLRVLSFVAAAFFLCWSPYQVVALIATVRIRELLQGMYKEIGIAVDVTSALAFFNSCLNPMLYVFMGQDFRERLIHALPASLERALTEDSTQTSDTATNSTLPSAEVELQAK

[2] = target: T2, FLAG-Hs_FPR2 C-terminally fused to Renilla Luciferase 8 (human, UniProt P25090 1-351)
T2 sequence (looked up): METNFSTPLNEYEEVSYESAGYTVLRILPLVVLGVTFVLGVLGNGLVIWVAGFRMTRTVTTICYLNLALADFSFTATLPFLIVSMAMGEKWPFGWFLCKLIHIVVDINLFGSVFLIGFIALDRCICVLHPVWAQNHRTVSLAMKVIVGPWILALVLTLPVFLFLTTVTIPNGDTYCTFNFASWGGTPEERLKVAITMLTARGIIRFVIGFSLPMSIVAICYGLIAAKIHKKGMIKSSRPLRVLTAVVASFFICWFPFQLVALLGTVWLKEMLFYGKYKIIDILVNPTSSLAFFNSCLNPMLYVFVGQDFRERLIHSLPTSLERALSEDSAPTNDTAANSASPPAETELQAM

[3] = target: T3, FLAG-Mm_Fpr1 C-terminally fused to Renilla Luciferase 8 (mouse, UniProt P33766 1-364)
T3 sequence (looked up): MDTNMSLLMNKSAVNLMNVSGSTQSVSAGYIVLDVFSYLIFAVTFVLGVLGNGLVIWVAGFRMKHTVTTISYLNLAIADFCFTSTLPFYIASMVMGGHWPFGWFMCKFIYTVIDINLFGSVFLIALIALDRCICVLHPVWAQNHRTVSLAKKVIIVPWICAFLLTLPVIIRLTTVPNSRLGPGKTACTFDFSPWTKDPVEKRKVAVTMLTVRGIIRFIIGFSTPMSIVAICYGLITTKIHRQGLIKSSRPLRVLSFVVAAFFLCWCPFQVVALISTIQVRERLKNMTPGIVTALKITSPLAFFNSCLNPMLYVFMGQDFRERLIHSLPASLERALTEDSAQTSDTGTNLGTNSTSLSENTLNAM

[4] = target: T4, FLAG-Mm_Fpr2 C-terminally fused to Renilla Luciferase 8 (mouse, UniProt O88536 1-351)
T4 sequence (looked up): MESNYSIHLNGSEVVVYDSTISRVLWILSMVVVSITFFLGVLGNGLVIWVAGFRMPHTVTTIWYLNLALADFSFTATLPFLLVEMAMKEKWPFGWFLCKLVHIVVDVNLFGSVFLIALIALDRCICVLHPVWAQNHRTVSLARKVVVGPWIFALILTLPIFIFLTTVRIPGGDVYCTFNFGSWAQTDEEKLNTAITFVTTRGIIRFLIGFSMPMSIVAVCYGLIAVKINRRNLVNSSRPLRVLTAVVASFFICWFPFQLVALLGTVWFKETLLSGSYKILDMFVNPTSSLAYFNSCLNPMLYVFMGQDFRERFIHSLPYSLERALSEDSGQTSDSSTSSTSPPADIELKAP

[5] = target: T1, FLAG-Hs_FPR1 C-terminally fused to …; remark: listed apart in the source
[6] = target: T3, FLAG-Mm_Fpr1 C-terminally fused to …; remark: listed apart in the source
[7] = target: T4, FLAG-Mm_Fpr2 C-terminally fused to …; remark: listed apart in the source

Question: Which results are given for For-Met-Leu-Phe [fMet-Leu-Phe (fMLF)]?
Answer: BRET of receptor-RLuc8 with Venus-mGsi: Emax (% of 1 μM WKYMVm) [1]: 115%; BRET of receptor-RLuc8 with Venus-mGsi: Log EC50 (M) [1]: -6.47 log M; BRET of receptor-RLuc8 with Venus-mGsi: Emax (% of 1 μM WKYMVm) [2]: 61.7%; BRET of receptor-RLuc8 with Venus-mGsi: Log EC50 (M) [2]: -4.05 log M; BRET of receptor-RLuc8 with Venus-mGsi: Emax (% of 1 μM WKYMVm) [3]: 59.3%; BRET of receptor-RLuc8 with Venus-mGsi: Log EC50 (M) [3]: -4.93 log M; BRET of receptor-RLuc8 with Venus-mGsi: Emax (% of 1 μM WKYMVm) [4]: 13.2%; BRET of receptor-RLuc8 with Venus-mGsi: Log EC50 (M) [4]: -4.58 log M; BRET of receptor-RLuc8 with Arrestin 3-YFP: Emax (% of 1 μM WKYMVm) [5]: 97%; BRET of receptor-RLuc8 with Arrestin 3-YFP: Log EC50 (M) [5]: -7.08 log M; BRET of receptor-RLuc8 with Arrestin 3-YFP: Emax (% of 1 μM WKYMVm) [6]: 83.4%; BRET of receptor-RLuc8 with Arrestin 3-YFP: Log EC50 (M) [6]: -4.68 log M; BRET of receptor-RLuc8 with Arrestin 3-YFP: Emax (% of 1 μM WKYMVm) [7]: 22.7%; BRET of receptor-RLuc8 with Arrestin 3-YFP: Log EC50 (M) [7]: -4.71 log M
